Test results: US20260125469A1 (Hoffmann-La Roche, published 2026)
Like-named read-outs stand apart in the source and are kept apart here.

What was measured:
[1] = molecular target: T1, Cynomolgus CD3ε stalk-Fc(knob)-Avi/CD3δ stalk-Fc(hole) (cynomolgus); test: SPR, TCB captured by anti-PG antibody, antigen as analyte, 25°C
T1 construct: also called cynomolgus CD3ε/δ

[2] = molecular target: T2, Human CD3ε stalk-Fc(knob)-Avi/CD3δ stalk-Fc(hole) (human); test: as above
T2 construct: Heterodimer of CD3 delta and CD3 epsilon ectodomains fused to human Fc with knob-into-hole; also called human CD3ε/δ; CD3 antigen

[3] = molecular target: human CD3 on cells (CD3ε) (human, UniProt P07766 23-207); test: cell-based or functional assay
[4] = molecular target: T2, Human CD3ε stalk-Fc(knob)-Avi/CD3δ …; test: SPR on immobilized human CD3ε/δ after stress, relative to sample kept at -80°C pH 6
Outline: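 TCB antibodies (1.0 mg/ml) were stressed 14 days at 37° C pH 7.4 (PBS) or 40° C pH 6 (His/NaCl), referenced to -80° C pH 6 samples. On biotinylated CD3ε/δ at 25° C, 2 μg/ml was injected 30 s; response 5 s post-injection was normalized to anti-huIgG capture.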

[5] = molecular target: T2, Human CD3ε stalk-Fc(knob)-Avi/CD3δ …; test: SPR, TCB captured by anti-PG antibody, antigen as analyte, 25°C; remark: listed apart in the source
[6] = molecular target: T2, Human CD3ε stalk-Fc(knob)-Avi/CD3δ …; test: SPR on immobilized human CD3ε/δ after stress, relative to sample kept at -80°C pH 6; remark: listed apart in the source
Procedure: In order to assess the effect of the deamidation site removal and its effect on the stability of the antibodies, the optimized anti-CD3 antibodies (in TCB format) were incubated for 14 days at 37° C., pH 7.4 and at 40° C., pH 6 and further analyzed by SPR for their binding capability to human CD3ε/δ. Samples stored at −80° C. pH 6 were used as reference. The reference samples and the samples stressed at 40° C. were in 20 mM His, 140 mM NaCl, pH 6.0, and the samples stressed at 37° C. in PBS, pH 7.4, all at a concentration of 1.0 mg/ml. After the stress period (14 days) samples in PBS were dialyzed back to 20 mM His, 140 mM NaCl, pH 6.0 for further analysis.
(§1) All SPR experiments were performed on a Biacore T200 instrument (GE Healthcare) at 25° C. with HBS-P+ (10 mM HEPES, 150 mM NaCl pH 7.4, 0.05% Surfactant P20) as running and dilution buffer. Biotinylated human CD3ε/δ (see Example 3, SEQ ID NOs 41 and 42) as well as biotinylated anti-huIgG (Capture Select, Thermo Scientific, #7103262100) were immobilized on a Series S Sensor Chip SA (GE Healthcare, #29104992), resulting in surface densities of at least 1000 resonance units (RU). Anti-CD3 antibodies with a concentration of 2 μg/ml were injected for 30 s at a flow rate of 5 μl/min, and dissociation was monitored for 120 s. The surface was regenerated by injecting 10 mM glycine pH 1.5 for 60 s. Bulk refractive index differences were corrected by subtracting blank injections and by subtracting the response obtained from a blank control flow cell. For evaluation, the binding response 5 seconds after injection end was taken. To normalize the binding signal, the CD3 binding was divided by the anti-huIgG response (the signal (RU) obtained upon capture of the CD3 antibody on the immobilized anti-huIgG antibody). The relative binding activity was calculated by referencing each temperature stressed sample to the corresponding, non-stressed sample.

[7] = molecular target: T1, Cynomolgus CD3ε stalk-Fc(knob)-Avi/CD3δ …; test: SPR, TCB captured by anti-PG antibody, antigen as analyte, 25°C; remark: listed apart in the source
Excerpt: (§2) For affinity measurements, TCB molecules were captured on a C1 sensorchip (GE Healthcare) surface with immobilized anti-Fc(P329G) IgG (an antibody that specifically binds human IgG₁ Fc(P329G); “anti-PG antibody”—see WO 2017/072210, incorporated herein by reference). The experimental setup is schematically depicted in FIG. 3. Capture IgG was coupled to the sensorchip surface by direct immobilization of around 400 resonance units (RU) using the standard amine coupling kit (GE Healthcare Life Sciences).
(§3) To analyze the interaction to CD3, TCB molecules were captured for 80 s at 25 nM with a flow rate of 10 μl/min. […] The dissociation was monitored for 800 s.
(§4) Kinetic constants were derived using the Biacore T200 Evaluation Software (GE Healthcare Life Sciences), to fit rate equations for 1:1 Langmuir binding by numerical integration. The half-life (t_{1/2}) of the interaction was calculated using the formula t_{1/2}=ln2/koff.

[8] = molecular target: T2, Human CD3ε stalk-Fc(knob)-Avi/CD3δ …; test: as above; remark: listed apart in the source
Excerpt: as §2, §3, §4

[9] = molecular target: T1, Cynomolgus CD3ε stalk-Fc(knob)-Avi/CD3δ …; test: SPR, monovalent IgG captured by anti-PG antibody, antigen as analyte, 25°C
Procedure: (§5) SPR experiments were performed as described in Example 3, with the monovalent IgG molecules prepared in Example 19.
(§6) To analyze the interaction to CD3, IgG molecules were captured for 240 s at 50 nM with a flow rate of 5 μl/min. Human and cynomolgus CD3F stalk-Fc(knob)-Avi/CD36-stalk-Fc(hole) were passed at a concentration of 0.061-250 nM with a flow rate of […] through the flow cells for 300 s. The dissociation was monitored for 800 s.

[10] = molecular target: T2, Human CD3ε stalk-Fc(knob)-Avi/CD3δ …; test: as above
Procedure: as §5, §6

[11] = molecular target: T2, Human CD3ε stalk-Fc(knob)-Avi/CD3δ …; test: SPR on immobilized human CD3ε/δ after stress, relative to sample kept at -80°C pH 6; remark: listed apart in the source
Procedure: as §1
The experiment was performed as described in Example 4, using the monovalent IgG molecules prepared in Example 19.

[12] = molecular target: T2, Human CD3ε stalk-Fc(knob)-Avi/CD3δ …; test: SPR, monovalent IgG captured by anti-PG antibody, antigen as analyte, 25°C; remark: listed apart in the source

human CD3 on cells (CD3ε), sequence (P07766 23-207 limits assumed): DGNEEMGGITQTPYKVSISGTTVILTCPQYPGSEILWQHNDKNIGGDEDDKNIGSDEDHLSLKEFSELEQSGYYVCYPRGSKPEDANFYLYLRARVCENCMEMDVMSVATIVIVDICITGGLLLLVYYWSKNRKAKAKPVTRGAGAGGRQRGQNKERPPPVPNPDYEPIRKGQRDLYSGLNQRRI

B1: CEACAM5-TCB, CEACAM5 CD3 variant P033.078 (bispecific antibody, human IgG1, kappa, L234A L235A)
heavy 1: not shown
heavy 2: QVQLVQSGAEVKKPGSSVKVSCKASGFNIKDTYMHWVRQAPGQGLEWMGRIDPANGNSKYVPKFQGRVTITADTSTSTAYMELSSLRSEDTAVYYCAPFGYYVSDYAMAYWGQGTLVTVSSASTKGPSVFPLAPSSKSTSGGTAALGCLVEDYFPEPVTVSWNSGALTSGVHTFPAVLQSSGLYSLSSVVTVPSSSLGTQTYICNVNHKPSNTKVDEKVEPKSCDKTHTCPPCPAPEAAGGPSVFLFPPKPKDTLMISRTPEVTCVVVDVSHEDPEVKFNWYVDGVEVHNAKTKPREEQYNSTYRVVSVLTVLHQDWLNGKEYKCKVSNKALGAPIEKTISKAKGQPREPQVCTLPPSRDELTKNQVSLSCAVKGFYPSDIAVEWESNGQPENNYKTTPPVLDSDGSFFLVSKLTVDKSRWQQGNVFSCSVMHEALHNHYTQKSLSLSP
light 1: EIVLTQSPATLSLSPGERATLSCRAGESVDIFGVGFLHWYQQKPGQAPRLLIYRASNRATGIPARFSGSGSGTDFTLTISSLEPEDFAVYYCQQTNEDPYTFGQGTKLEIKRTVAAPSVFIFPPSDRKLKSGTASVVCLLNNFYPREAKVQWKVDNALQSGNSQESVTEQDSKDSTYSLSSTLTLSKADYEKHKVYACEVTHQGLSSPVTKSFNRGEC
light 2: EVQLLESGGGLVQPGGSLRLSCAASGFTFESYAMNWVRQAPGKGLEWVSRIRSKYNEYATYYADSVKGRFTISRDDSKNTLYLQMNSLRAEDTAVYYCVRASNFPSSFVSYFGYWGQGTLVTVSSASVAAPSVFIFPPSDEQLKSGTASVVCLLNNFYPREAKVQWKVDNALQSGNSQESVTEQDSKDSTYSLSSTLTLSKADYEKHKVYACEVTHQGLSSPVTKSFNRGEC
notes: 2+1 IgG CrossFab, inverted; human IgG1 Fc, knob-into-hole, PGLALA; also called P033.078 in CEACAM5-TCB format
Which results are given for B1?
Kd [1]: 0.324 nM; koff [1]: 0.000675 s⁻¹; kon [1]: 2.08e+06 M⁻¹ s⁻¹; t1/2 [1]: 17.1 min; Kd [2]: 0.562 nM; koff [2]: 0.000886 s⁻¹; kon [2]: 1.59e+06 M⁻¹ s⁻¹; t1/2 [2]: 13 min; EC50 24 h (pM), T-cell mediated lysis of CEACAM5-expressing LS180 tumor cells [3]: 58 pM; EC50 48 h (pM), T-cell mediated lysis of CEACAM5-expressing LS180 tumor cells [3]: 36.1 pM; binding activity [%] after 2 weeks at pH 6.0/40°C [4]: 101%; binding activity [%] after 2 weeks at pH 7.4/37°C [4]: 99%; fold higher binding half-life than CD3orig [5]: > 3 fold

B2: TYRP1-TCB with anti-CD3 antibody clone P033.078 (bispecific antibody, human IgG1, kappa, L234A L235A)
heavy 1: not shown
heavy 2: QVQLVQSGAEVKKPGASVKVSCKASGFNIKDYFLHWVRQAPGQGLEWMGWINPDNGNTVYAQKFQGRVTMTADTSTSTVYMELSSLRSEDTAVYYCTRRDYTYEKAALDYWGQGTLVTVSSASTKGPSVFPLAPSSKSTSGGTAALGCLVEDYFPEPVTVSWNSGALTSGVHTFPAVLQSSGLYSLSSVVTVPSSSLGTQTYICNVNHKPSNTKVDEKVEPKSCDKTHTCPPCPAPEAAGGPSVFLFPPKPKDTLMISRTPEVTCVVVDVSHEDPEVKFNWYVDGVEVHNAKTKPREEQYNSTYRVVSVLTVLHQDWLNGKEYKCKVSNKALGAPIEKTISKAKGQPREPQVCTLPPSRDELTKNQVSLSCAVKGFYPSDIAVEWESNGQPENNYKTTPPVLDSDGSFFLVSKLTVDKSRWQQGNVFSCSVMHEALHNHYTQKSLSLSP
light 1: DIQMTQSPSSLSASVGDRVTITCRASGNIYNYLAWYQQKPGKVPKLLIYDAKTLADGVPSRFSGSGSGTDFTLTISSLQPEDVATYYCQHFWSLPFTFGQGTKLEIKRTVAAPSVFIFPPSDRKLKSGTASVVCLLNNFYPREAKVQWKVDNALQSGNSQESVTEQDSKDSTYSLSSTLTLSKADYEKHKVYACEVTHQGLSSPVTKSFNRGEC
light 2: EVQLLESGGGLVQPGGSLRLSCAASGFTFESYAMNWVRQAPGKGLEWVSRIRSKYNEYATYYADSVKGRFTISRDDSKNTLYLQMNSLRAEDTAVYYCVRASNFPSSFVSYFGYWGQGTLVTVSSASVAAPSVFIFPPSDEQLKSGTASVVCLLNNFYPREAKVQWKVDNALQSGNSQESVTEQDSKDSTYSLSSTLTLSKADYEKHKVYACEVTHQGLSSPVTKSFNRGEC
notes: human IgG1 Fc, knob-into-hole, P329G L234A L235A; also called P033.078 in TCB format
Which results are given for B2?
binding activity [%] after 2 weeks at pH 6.0/40°C [6]: 99%; binding activity [%] after 2 weeks at pH 7.4/37°C [6]: 99%; Kd [7]: 0.37 nM; koff [7]: 0.000802 s⁻¹; kon [7]: 2.2e+06 M⁻¹ s⁻¹; t1/2 [7]: 14.4 min; Kd [8]: 0.6 nM; koff [8]: 0.000996 s⁻¹; kon [8]: 1.66e+06 M⁻¹ s⁻¹; t1/2 [8]: 11.6 min; fold higher binding half-life than CD3orig [5]: ≤ 6 fold

B3: anti-CD3 antibody clone P033.078 in monovalent IgG format (antibody)
heavy: not shown
chain: DKTHTCPPCPAPEAAGGPSVFLFPPKPKDTLMISRTPEVTCVVVDVSHEDPEVKFNWYVDGVEVHNAKTKPREEQYNSTYRVVSVLTVLHQDWLNGKEYKCKVSNKALGAPIEKTISKAKGQPREPQVCTLPPSRDELTKNQVSLSCAVKGFYPSDIAVEWESNGQPENNYKTTPPVLDSDGSFFLVSKLTVDKSRWQQGNVFSCSVMHEALHNHYTQKSLSLSP
light: EVQLLESGGGLVQPGGSLRLSCAASGFTFESYAMNWVRQAPGKGLEWVSRIRSKYNEYATYYADSVKGRFTISRDDSKNTLYLQMNSLRAEDTAVYYCVRASNFPSSFVSYFGYWGQGTLVTVSSASVAAPSVFIFPPSDEQLKSGTASVVCLLNNFYPREAKVQWKVDNALQSGNSQESVTEQDSKDSTYSLSSTLTLSKADYEKHKVYACEVTHQGLSSPVTKSFNRGEC
notes: also called monovalent IgG P033.078
With B3 as the binder, how does the Kd [9] read?
Its Kd is 0.403 nM.

What about the koff [9] of the same binder?
The koff was 0.00104 s⁻¹.

And the kon [9]?
Its kon is 2.6e+06 M⁻¹ s⁻¹.

And the t1/2 [9]?
Its t1/2 is 11.1 min.

And the Kd [10]?
Its Kd is 0.771 nM.

What about the koff [10] of the same binder?
Its koff is 0.00133 s⁻¹.

And the kon [10]?
Its kon is 1.73e+06 M⁻¹ s⁻¹.

And the t1/2 [10]?
Its t1/2 is 8.69 min.

What about the “binding activity [%] after 2 weeks at pH 6.0/40°C” value [11] of the same binder?
The value was 98%.

What about the “binding activity [%] after 2 weeks at pH 7.4/37°C” value [11] of the same binder?
The value was 95%.

What about the “fold higher binding half-life than CD3orig” value [12] of the same binder?
The value was > 2 fold.
